Test results taken from patent US20250188133A1, “CHIMERIC BACTERIOCINS AND METHOD FOR THE CONTROL OF PSEUDOMONAS” (priority 2022, published 2025).

Tests used:
P. aeruginosa ATCC 19660 [1] = assay: murine keratitis model, cytotoxic strain (C57BL/6 mice); type: in vivo; conditions: for viable bacteria isolated, one mouse: only mouse with viable bacteria
Protocol: The inbred mice of C57BL/6 strain of both sexes in equivalent numbers were used for the research. 2-6 months old, adult female and adult male mice were purchased from the Vilnius University vivarium of laboratory animals. The animals throughout the period of the experiment were given standard chow and drinking water ad libitum. Animals were housed in the individual plastic cages in a 12 h light/dark cycle at 21-23° C. All regulated procedures on living animals were approved by The Lithuanian Ethics Committee of Biomedical Research (Protocol no. B1-442) and were carried out in accordance with the European Union legislation of OECD (directive 2010/63/EU). The experiments were carried out in Biological research center of Lithuanian University of Health Sciences.
For P. aeruginosa infection and keratitis induction the mice were anesthetized by Ketamine and Xylazine 90:9 mg/kg intraperitoneal injection. The cornea of the left eye of each mouse was visualized under a stereoscopic microscope, and three 1 mm scratches were made using a sterile 25 gauge needle. A 10 μL aliquot containing 4×10^6 cells of P. aeruginosa ATCC 19660 (cytotoxic strain) or PAO1 ATCC 15692 (invasive strain) was applied to the corneal surface. Depending on the experiment, the treatment was started 30 min or 6 h post infection. 10 μl aliquot containing 0.14 mg of tobramycin or 20 μg of S5-PmnH (both containing 0.5% hydroxypropyl methylcellulose (HPMC)) or PBS containing 0.5% HPMC was applied as one drop of substance to the each eye. HPMC is used as artificial tears and was used in order to thicken the tears film and prolong the presence of the applied product on the surface of the cornea. The treatment was continued for five days twice daily. Mice were euthanized by cervical dislocation 1, 3, 5 days post infection, and the eyeballs were collected and homogenized for viable bacteria count.
The eyes were examined and photographed with a dissection microscope equipped with a digital camera at 1, 3 and 5 dpi to monitor the disease progression. At 1, 3 and 5 dpi disease severity was visually graded by using an established corneal damage scale: 0, the pupil was partially or fully covered by clear or slight opacity; +1, the anterior segment was partially or fully covered by slight opacity; +2, the pupil was partially or fully covered by dense opacity; +3, the entire anterior segment was covered by dense opacity; and +4, corneal perforation^40.
Histopathology experiments were carried out at Lithuanian University of Health Sciences, Department of Veterinary Pathobiology of Veterinary Academy. One randomly chosen mice of each study group was used for histopathology experiments. Enucleated eyes were preserved in 10% formaldehyde. Eyes were paraffin-embedded, cut into 3-μm-thick sections, deparaffinised, rehydrated and used for preparation of hematoxylin/eosin stained samples.

P. aeruginosa ATCC 19660 [2] = assay: MIC by agar dilution method; type: cell-based; conditions: against ATCC 19660; CAA agar with 0.1 mg/ml BSA
Protocol: (§1) Aliquots of melted CAA (1.5% agar) medium (final volume—25 ml) pre-wormed to 51° C. were supplemented with 0.1 mg/ml BSA and with appropriate amounts of pyocin stock solutions of different concentrations (concentrations lowered by a factor of 2). Aliquots were poured into Petri plates. P. aeruginosa cultures were grown from single colony in CAA medium at 37° C., 200 rpm until OD595=0.2 and diluted to 10^7 CFU/ml in CAA medium. 1 μL of bacteria suspension were applied in three replicates on each test plate. Plates were left to incubate in 37° C. overnight. The determined MIC is a concentration of pyocin, where no confluent bacterial growth is observed.

P. aeruginosa PAO1 [3] = assay: MIC by agar dilution method; type: cell-based; conditions: against PAO1; CAA agar with 0.1 mg/ml BSA
Protocol: as §1

P. aeruginosa ATCC 19660 [4] = assay: ex vivo porcine corneas as model for bacterial keratitis; type: cell-based; conditions: 5 μg applied 16-20 h after colonization, further 16-20 h incubation
Protocol: (§2) Preparation of porcine corneas. Porcine eyes were acquired from the nearest slaughterhouse. Enucleated eyes were stored at −70° C. Before the start of experiment, eyes were transferred to 4° C. for 1 hour, then to room temperature for 1-2 hours until the eyeballs were completely defrosted. Then eyeballs were individually placed in sterile plastic containers and submerged for 5 min in 2.5% Povidone-iodine (Betadine 100 mg/ml; EGIS Pharmaceuticals PLC), then twice washed with sterile PBS. The corneas were excised with sterile surgical blade No. #12. The excised corneas were stored in Minimum Essential Medium (MEM) supplemented with Non-Essential Amino Acids, L-Glutamine (2 mM), penicillin (200 U/ml)+spectinomycin (25 μg/ml) until further use at 4° C. up to two weeks.
(§3) Cornea infection and pyocin treatment. P. aeruginosa was grown overnight from frozen stock. Next morning, the culture was diluted 100 fold by fresh LB medium, and grown until OD595=˜0.6 (˜6 hours). Bacteria were collected by centrifugation and re-suspended in PBS. The dissected corneas were placed on agarose-gelatin (0.5% each) solid support in a 6-well culture plate containing 800 μL MEM with antibiotics (100 U/ml penicillin, 25 μg/ml spectinomycin), then three horizontal and 3 vertical scratches were made using a sterile 25 gauge needle. 3×10^4 CFU of P. aeruginosa ATCC 19660 strain or 0.4×10^4 CFU of PAO1 strain were applied to cornea and incubated for 16-20 hours in 37° C. CO2 incubator ([…]). 5 corneas were used for each experimental point. After incubation with P. aeruginosa, the corneas were visually inspected for opacity. The corneas which were clear and without signs of infection were considered as non-infected and discarded from further study. 5 μg of S5-PmnH (in 5 μl of PBS) or 5 μl of PBS were applied to infected corneas and incubated for additional 16-20 hours in 37° C. CO2 incubator.
(§4) Homogenization and CFU counting. Prior the homogenization the corneas were washed 3 times for 10 min in 50 ml sterile PBS with occasional agitation. Each cornea was chopped in 4 equal parts, trying to get rid of sclera. […]

P. aeruginosa PAO1 [5] = assay: as above; type: cell-based; conditions: 5 μg applied 16-20 h after colonization, further 16-20 h incubation
Protocol: as §2, §3, §4

[6] = treatment started 30 min post infection
[7] = treatment started 6 h post infection, 1 dpi

B1: S5-PmnH (protein)
chain: MSNDNEVPGSMVIVAQGPDDQYAYEVPPIDSAAVAGNMFGDLIQREIYLQKNIYYPVRSIFEQGTKEKKEINKKVSDQVDGLLKQITQGKREATRQERVDVMSAVLHKMESDLEGYKKTFTKGPFIDYEKQSSLSIYEAWVKIWEKNSWEERKKYPFQQLVRDELERAVAYYKQDSLSEAVKVLRQELNKQKALKEKEDLSQLERDYRTRKANLEMKVQSELDQAGSALPPLVSPTPEQWLERATRLVTQAIADKKQLQTTNNTLIKNSPTPLEKQKAIYNGELLVDEIASLQARLVKLNAETTRRRTEKELTPDEKAAYTDAVSFVSTANEQMLQKYGANLSKVAQDMQAEIAGKKVRSYAEAMATFEKISANPAMKLNALDTQAVVDALNALDKASFADNITRLGKAFGVVGKVVQAEAIREKTVSGFQTGDWKPLMLELEAMAVGTGAGILLATSMAFFFPVFASAAAGVVVVALMMAATAAYFDAAKVDEINNLILN
modifications: Chimeric S5-PmnH
- histopathology of infected treated eyes (P. aeruginosa ATCC 19660 [1]; [6]): Only weak oedema in the corneal stroma
- signs of disease (visual inspection, clinical score) (P. aeruginosa ATCC 19660 [1]; [6]): No signs of disease were observed in majority of samples
- viable bacteria isolated from infected eyes (P. aeruginosa ATCC 19660 [1]; treatment started 30 min post infection, twice daily, 1, 3 or 5 dpi, 20 μg S5-PmnH or 0.14 mg tobramycin per eye): no viable P. aeruginosa were isolated
- clinical score evaluation (P. aeruginosa ATCC 19660 [1]; treatment started 6 h post infection, 1 and 3 dpi, two S5-PmnH-treated and one tobramycin-treated mice): Only mild disease signs were observed
- histopathology of infected treated eyes (P. aeruginosa ATCC 19660 [1]; [7]): signs of acute inflammation of cornea
- viable bacteria isolated, one mouse (P. aeruginosa ATCC 19660 [1]; [7]): 3.6 log10 CFU/cornea
- histopathology of infected treated eyes (P. aeruginosa ATCC 19660 [1]; treatment started 6 h post infection, 3 and 5 dpi): no marked aberrations
- viable bacteria isolated, one mouse (P. aeruginosa ATCC 19660 [1]; treatment started 6 h post infection, 3 dpi): 5 log10 CFU/cornea
- clinical score evaluation (P. aeruginosa ATCC 19660 [1]; treatment started 6 h post infection, 5 dpi): all corneas were completely clear
- viable bacteria isolated (P. aeruginosa ATCC 19660 [1]; treatment started 6 h post infection, 5 dpi, three mice): No viable bacteria were isolated
- MIC determined by agar dilution method (P. aeruginosa ATCC 19660 [2]): 32 µg/mL
- MIC determined by agar dilution method (P. aeruginosa PAO1 [3]): 4 µg/mL
- reduction of CFU number (P. aeruginosa ATCC 19660 [4]): 5.3 log10
- burden in treated corneas (average) (P. aeruginosa PAO1 [5]): 10 CFU per cornea
- reduction of burden vs untreated corneas (P. aeruginosa PAO1 [5]): 6.6 log10
